Data as given in article PMC8895158 (2022).

Molecular target: His-Src SH3 (UniProt P12931 84-145)
Assay: SPR

Kd: 9.97 µM
Binder: RKLPPRPSK [RLP1 peptide]
